Test results as given in the nanobody polyreactivity screen of Harvey et al. (2022).

Test: yeast display, Sf9 membrane polyspecificity reagent, FACS + sequencing; frameworks hold sequencing errors
How it was run: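 A nanobody's polyreactivity label depends on the gate it was sorted from. Yeast display cells were stained with 10% biotinylated, detergent-solubilized Sf9 membrane reagent for 1 hour at 4 °C, enriched on streptavidin microbeads and sorted by FACS. The low and high (top ~1%) gates were set on anti-HA fluorescence for expression and streptavidin fluorescence for reagent binding.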

| Sequence | polyreactivity (PSR sort gate) |
| --- | --- |
| QVQLVESGGGLVQAGGSLRLSCAASGSIFGQNAMGWYRQAPGKERELVAAITSGAGITYYADSVKGRFTISRDNAKNTVYLQMNSLKPEDPAVYYCNAVPSWSPSPLFDYWGQGTQVTVSS | low polyreactivity |
| QVQLVESGGGLVQAGGSLRLSCAASGSIFGQYAMGWYRQAPGKERELVAAISTRGGSTRYADSVKGRFTISRDNAKNTVYLQMNSLKPEDTAVYYCAARVPYIRHLAVDYWGQGTQVTVSS | high polyreactivity |
| QVQLVESGGGLVQAGGSLRLSCAASGSIFGRNAMGWYREAPGKERVLVAAINSGGSTNYADSVKGRFTISRDNAKNTVYLQMNSLKPEDTAVYYCAARTYSSGRYYGYVAFYYWGQGTQVTVSS | high polyreactivity |
| QVQLVESGGGLVQAGGSLRLSCAASGSIFGRNAMGWYRQAPGKERELGAAMTGSGTSTYADSVKGRFTISRDNAKNTVYLQMNSLKPEDTAVYYCAAGVTTVEYEYCGQGTQVTVSS | low polyreactivity |
| QVQLVESGGGLVQAGGSLRLSCAASGSIFGRNAMGWYRQAPGKERELVAAISFIGGSTYYADSVKGRFTISRDNAKNTVYLQMNSLKPEDTAVYYCATSVFYYGSLYGYWGQGTQVTVSS | high polyreactivity |
| QVQLVESGGGLVQAGGSLRLSCAASGSIFGRNAMGWYRQAPGKERELVARISSRGGSTYYADSVKGRFTISRDNAKNTVYLQMNSLKPEDTAVYYCNRDRTWQTNDYWGQGTQVTVSS | high polyreactivity |
| QVQLVESGGGLVQAGGSLRLSCAASGSIFGRNDMGWYRQAPGKERELVARITRGGSTNYADSVKGRFTISRDNAKNTVYLQMNSLKPEDTAVYYCAKEFKYWGYPYDYWGQGTQVTVSS | low polyreactivity |
| QVQLVESGGGLVQAGGSLRLSCAASGSIFGRYAMGWYRQAPGKERELVAAISYSGGSTYYADSVKGRFTISRDNAKNTVYLQMKSLKPEDTAFYYCAAEPSYYTRWFDGHYYYWGQGSQVTVSS | high polyreactivity |
| QVQLVESGGGLVQAGGSLRLSCAASGSIFGRYAMGWYRQAPGKERELVATITFRDTSTYYADSVKGRFTISRDTAKYTVLLLMNSLKPEDTAVYYCAAVRADLWDIARYDYWGQGTQETVSS | low polyreactivity |
| QVQLVESGGGLVQAGGSLRLSCAASGSIFGRYAMGWYRQAPGKESELVAAISANGGSTYYADSVKGRFTISRDNAKNTVYLQMNSLKPEDTAVYYCAAGSTRGYKLGYWGQGTQVTVSS | high polyreactivity |
| QVQLVESGGGLVQAGGSLRLSCAASGSIFGRYGAMGWSRQSPGKERELVAAIRTSGVSTYYADSVKGRFTISRDNAKNTVYLQMNSLKPEDTAVYYCAARAGRYRWTRFDYWGQGTQVTVSS | low polyreactivity |
| QVQLVESGGGLVQAGGSLRLSCAASGSIFGRYGMVCYRQAPGKERQLVAAITSGTGTNYADSVKGRFTISRDNALNTVYLQMNSLKPEDTAVYYCNALRLRGNYEYGYWGQGTQVTLSS | low polyreactivity |
| QVQLVESGGGLVQAGGSLRLSCAASGSIFGRYTMGWYRQAPGKERELVAAISSSGGRTYYADSVKGRFTISRDNAKNTVYLQMNSLKPEDTAVYYCNKGYGYEYYWGQGTQVTVSS | low polyreactivity |
| QVQLVESGGGLVQAGGSLRLSCAASGSIFGRYTMGWYRQAPGKERELVAAISWGGGSTYYADSVKGRFTISRDNAKNSVYLQMNSLKPEDTAVYYCAADTYWAIDPIYDYWGQGTQVTVSS | low polyreactivity |
| QVQLVESGGGLVQAGGSLRLSCAASGSIFGSNAMGWYRQAPGKERELVAAISSRAGRTYYADSVKGRFTISRDNAKNTVYLQMNSLKPEDTAVYYCAALYWVYRNRWLYDYWGLGTQVTVSS | high polyreactivity |
| QVQLVESGGGLVQAGGSLRLSCAASGSIFGSNTMGWYRQAPGKEREFVAAISFSGGSTYDADSVKGRFTISRDNAKNTVYLQMNSLKPEDTAVYYCAARQRRVGTSFYSSRRDYWGQGTQVTVSS | high polyreactivity |
| QVQLVESGGGLVQAGGSLRLSCAASGSIFGSYAMGWYRQAPGKERELVAAITSAGSTNYADSVKGRFTISRDNAKNTVYLQMNSLKPEDTAVYYCAVRPGFGRSLWYGYWGQGTQVTVSS | low polyreactivity |
